Target: the molecule itself
Experiment: cryo-EM structure

B1: elastase-digested native human uromodulin filaments (UMODe) (domain or fragment)
chain: not shown
modifications: N-glycans at N322, N396, N513
B1: binds.
